Results from publication PMC2680285.
Values joined by “and” are separate entries in the source; they are usually repeats but may differ in a detail not shown here. Equal entries are not always repeated.

Target: T1, wild-type GADD45α (growth arrest- and DNA damage-induced gene 45α), C-terminally myc-tagged (human), P24522
T1 chain: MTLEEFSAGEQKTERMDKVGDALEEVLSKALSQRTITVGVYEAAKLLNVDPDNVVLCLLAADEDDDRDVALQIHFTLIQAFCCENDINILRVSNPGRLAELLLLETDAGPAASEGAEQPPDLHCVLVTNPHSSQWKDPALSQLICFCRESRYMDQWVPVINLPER
Test: native gel or EMSA
Details: remark: other sources report otherwise

B1: wild-type GADD45α (growth arrest- and DNA damage-induced gene 45α), C-terminally myc-tagged, P24522 1-165 (natural protein)
chain: T1 chain
stoichiometry N: 3 and 4
